# Data as given in patent US20240181005A1, “COMPOSITIONS, SYSTEMS, AND METHODS FOR GENERATING GENE-EDITED CELLS” (CellScript, LLC, priority 2020, published 2024).
# B1: GSE CS-56 mRNA: mRNA encoding a human TP53 genetic suppressor element, a dominant negative deletion mutant of TP53 (nucleic acid)
# chain: GGGUAAUACAAGCUUGCUUGUUCUUUUUGCAGAAGCUCAGAAUAAACGCUCAACUUUGGCAGCCACCAUGGAUUGUCCUGGGAGAGACCGGCGCACAGAGGAAGAGAAUCUCCGCAAGAAAGGGGAGCCUCACCACGAGCUGCCCCCAGGGAGCACUAAGCGAGCACUGCCCAACAACACCAGCUCCUCUCCCCAGCCAAAGAAGAAACCACUGGAUGGAGAAUAUUUCACCCUUCAGAUCCGUGGGCGUGAGCGCUUCGAGAUGUUCCGAGAGCUGAAUGAGGCCUUGGAACUCAAGGAUGCCCAGGCUGGGAAGGAGCCAGGGGGGAGCAGGGCUCACUCCAGCCACCUGAAGUAGUGAUAUCACUAGUGACUGACUAGGAUCUGGUUACCACUAAACCAGCCUCAAGAACACCCGAAUGGAGUCUCUAAGCUACAUAAUACCAACUUACACUUUACAAAAUGUUGUCCCCCAAAAUGUAGCCAUUCGUAUCUGCUCCUAAUAAAAAGAAAGUUUCUUCACAUUCUGCUAGCUCUAG
# modifications: pseudouridine; (1)..(539) U=Pseudouridine
# Legend:
# 53BP1 = molecular target: T1, 53BP1 (Homo sapiens, UniProt Q12888); conditions: blocking 53BP1 tudor domain binding to H4K20me2; cited from earlier work
# T1 construct: endogenous in cells
# [1] = tested on: NSGS immunodeficient mice; assay: Transplantation of gene-edited XMEN CD34+ HSPCs into NSGS mice; type: in vivo, mouse; conditions: for post-transplant TI: ddPCR, human CD45+ cells from bone marrow, week 16
# Text: (A) Human engraftment measured by the presence of human CD45^+ cells by flow cytometry at week 16 in the peripheral blood, bone marrow, spleen and thymus of NSGS mice transplanted with HD (n=5 mice), untreated (n=12) or gene-edited XMEN CD34^+ HSCs (n=1 (−i53), n=8 (+i53), n=18 (+i53^+ GSE-CS56)). The dotted line indicates the threshold for engraftment at 0.2% hCD45^+ cells in the bone marrow. (B) Percentage of human engraftment (hCD45^+) measured after injection of XMEN HSPCs gene edited with increasing Multiplicity of Infection (MOIs) of AAV, in presence of i53 alone or i53 and GSE-CS56. (C) Immunophenotypic analysis of bone marrow at 16 weeks post-transplant by flow cytometry showing the percentages of CD34^+ cells, myeloid (CD33^+), lymphoid B (CD19^+) and T (CD3^+) after gating on the hCD45^+ population. (D and E) Restoration of NKG2D expression in NK cells from the spleen (D) and CD8^+ T cells from the peripheral blood, spleen and thymus (E) at week 16 post-transplant. For all the graphs, data are shown as mean±SD. (F and G) Targeted insertion quantified by ddPCR in human CD45^+ cells isolated from the bone marrow after gene editing with i53 (orange bar) or with i53 and GSE-CS56 (green bar) (F); or in the lymphoid T (CD3), myeloid (CD33/CD14) and lymphoid B (CD19) cells sorted from the spleen (G).
# The use of triple transgenic immunodeficient mice NOD.Cg-Prkd^scid Il2rg^tm1Wjl Tg (NSG-SGM3 or NSGS) expressing human IL3, GM-CSF and SCF cytokines (30) (Stock No: 013062; The Jackson Laboratory) for transplantation studies was approved by NIAID Institutional Animal Care and Use Committee under the animal use protocol LCIM-1E. The conduct of these studies conforms to AAALAC International guidelines and all US federal regulations required for protection of research animals. Newborn mice (0-4 days old) were irradiated at 100 cGy and immediately intrahepatically injected (courtesy of Mara Pavel-Dinu) with 1-1.5×10^6 viable CD34^+ cells per mouse. Peripheral blood from tail vein was analyzed at weeks 12 and 16 after transplantation. At 16 weeks, mice were sacrificed, and bone marrow, spleen and thymus were harvested for analysis of engraftment, sorting or gDNA extraction as indicated. […]
# (§1) Targeted insertion (TI) of MAGT1 cDNA was quantified by digital droplet PCR (ddPCR) using one primer located upstream of the LHA (5′-[…]−3′, SEQ ID NO:42) the second primer (5′-[…]-3′, SEQ ID NO:43) inside the cDNA and a probe (5′-[…]-3′, SEQ ID NO:44).
# HSPCs [2] = assay: Innate immune, transcriptional and toxicity response of HSPCs to the mRNAs during gene editing
# HSPCs [3] = conditions: HSPCs from patients with CGD, SCD, SCID-X1; cited from earlier work
# [4] = tested on: NK cells (CD3-CD56^+) differentiated from XMEN CD34^+ HSPCs; assay: In vitro NK cell differentiation from gene-edited CD34+ cells: NKG2D expression and TI; type: cell-based, human
# Text: (B) Dot plot showing the gating for NK cells (CD3-CD56+) and NKG2D expression after 35 days of in vitro NK cell differentiation from CD34+ cells; histogram on the right showing the percentage of CD34-derived NK cells in each condition (n=2-8 independent experiments). (C) NKG2D expression and (D) targeted integration in NK cells at day 35 of in vitro differentiation (n=2-8 independent experiments). (E) Cytotoxic activity of CD34+-differentiated NK cells against K562 cells at an E:T ratio of 2:1 (n=1-7 independent experiments). For all the graphs, data are shown as mean±SD; *p<0.05, *p<0.01, ***p<0.001, ****p<0.0001. (F) Correlation between the NKG2D expression (%) and the killing activity (%) in NK cells at day 35 was calculated using Spearman's correlation coefficient and two-tailed p-value (n=21 samples).
# CD34^+ HSPCs were differentiated into NK cells in vitro using a protocol adapted from (47). 200,000 CD34^+ cells were resuspended in IMDM supplemented with 20% FBS and 50 μM BME containing 5 ng/mL rhIL-3 (first week only), 10 ng/mL IL-15, 20 ng/mL IL-7, 20 ng/mL SCF, 10 ng/mL Flt3L and 100 U/mL IL2 for 35 days. […]
# as §1
# XMEN CD34^+ HSPCs [5] = assay: Viability of gene-edited CD34+ HSPCs by trypan blue exclusion; type: cell-based, human; conditions: day 2 post-EP
# Text: (§2) (A) Location of the 10 candidate sgRNAs targeting MAGT1 gene transcription start site (TSS). Each sgRNA (sg) is represented as a 20-bp sequence (light grey or green) associated with the 3-bp PAM sequence (darker color). (B) Evaluation of the percentage of cutting activity by TIDE assay after gDNA extraction from untreated versus Cas9/sgRNA treated HD CD34+ cells at 2-5 days post electroporation, sequencing of Exon 1 and comparison of the sequences using TIDE software (n=1-5 independent experiments). (C) Design of the rAAV6-MAGT1 donor. (D) Molecular analysis showing the percentage of targeted insertion in gene-edited XMEN CD34+ cells using gene editing enhancers as described. gDNA was extracted at 48 h-72 h post-EP and insertion of the MAGT1 cDNA donor was quantified by ddPCR (n=3-11 independent experiments). (E) Viability determined by blue trypan exclusion in untreated Naive and AAV-MAGT1-treated XMEN HSPCs at day 2 post-EP (n=1-7 independent experiments). (F) Representative analysis of the phenotype of CD34+ cells at day 2 post-EP. For all the graphs, data are shown as mean±standard deviation (SD); ANOVA one-way test and Tukey's post hoc multiple comparisons test, *p<0.05, *p<0.01, ***p<0.001, ****p<0.0001.
# Cryopreserved CD34^+ HSPCs were thawed (day 0) and cultured in StemSpan SFEM II medium (STEMCELL™ Technologies) supplemented with 100 ng/mL stem cell factor (SCF), Flt3 ligand, thrombopoietin (Peprotech), 0.75 μM of StemRegenin-1 (STEMCELL™ Technologies) and 35 nM of UM171 (STEMCELL™ Technologies) for 2 days (37). […] At 48 h post-EP, the cells were harvested and counted by hemocytometer with trypan blue to determine viability before their use for molecular analysis, phenotypic analysis by flow cytometry, CFU assay, T or NK cell differentiation or cryopreservation for transplant studies.
# XMEN CD34^+ HSPCs [6] = assay: Targeted insertion (TI) of MAGT1 cDNA by ddPCR in gene-edited CD34+ HSPCs; type: cell-based, human; conditions: ddPCR 48-72 h post-EP, input pre-transplant
# Text: as §2, with “For all the graphs, data are shown as mean±standard deviation (SD); ANOVA one-way test and Tukey's post hoc multiple comparisons test, *p<0.05, *p<0.01, ***p<0.001, ****p<0.0001.” left out
# as §1
# CD34^+ HSPCs = assay: CFSE proliferation assay; type: cell-based, human; conditions: CFSE stain day 1 post EP, flow cytometry day 6
# Text: (A) Optimization of cutting activity (% indels) of various forms of Cas9 mRNA and at increasing concentration. Commercial Cas9 mRNA (MaxCyte, Mx) is used as control. (B) Evaluation of the glycerol concentration in the EP mix on viability and cutting activity at day 2 post EP. (C) Representative dot plots showing the immunophenotype analysis of HSPCs by flow cytometry at day 2 post EP. (D) Hematopoietic potential evaluated by the CFU assay at day 2 post-EP; Number of CFU colonies were counted after 14 days. (E) Measure of the proliferation index after staining HD HSPCs at day 1 post EP with CFSE dye and analysis of the proliferation by flow cytometry at day 6 post EP.
# The following day after EP, CD34^+ cells were stained with CellTrace™ CFSE kit per manufacturer's instructions (ThermoFisher Scientific) and analyzed by flow cytometry 5 days later. Determination of the proliferation index was done using FlowJo software.
# T1 sequence (Q12888 whole entry, the tested form may be a part): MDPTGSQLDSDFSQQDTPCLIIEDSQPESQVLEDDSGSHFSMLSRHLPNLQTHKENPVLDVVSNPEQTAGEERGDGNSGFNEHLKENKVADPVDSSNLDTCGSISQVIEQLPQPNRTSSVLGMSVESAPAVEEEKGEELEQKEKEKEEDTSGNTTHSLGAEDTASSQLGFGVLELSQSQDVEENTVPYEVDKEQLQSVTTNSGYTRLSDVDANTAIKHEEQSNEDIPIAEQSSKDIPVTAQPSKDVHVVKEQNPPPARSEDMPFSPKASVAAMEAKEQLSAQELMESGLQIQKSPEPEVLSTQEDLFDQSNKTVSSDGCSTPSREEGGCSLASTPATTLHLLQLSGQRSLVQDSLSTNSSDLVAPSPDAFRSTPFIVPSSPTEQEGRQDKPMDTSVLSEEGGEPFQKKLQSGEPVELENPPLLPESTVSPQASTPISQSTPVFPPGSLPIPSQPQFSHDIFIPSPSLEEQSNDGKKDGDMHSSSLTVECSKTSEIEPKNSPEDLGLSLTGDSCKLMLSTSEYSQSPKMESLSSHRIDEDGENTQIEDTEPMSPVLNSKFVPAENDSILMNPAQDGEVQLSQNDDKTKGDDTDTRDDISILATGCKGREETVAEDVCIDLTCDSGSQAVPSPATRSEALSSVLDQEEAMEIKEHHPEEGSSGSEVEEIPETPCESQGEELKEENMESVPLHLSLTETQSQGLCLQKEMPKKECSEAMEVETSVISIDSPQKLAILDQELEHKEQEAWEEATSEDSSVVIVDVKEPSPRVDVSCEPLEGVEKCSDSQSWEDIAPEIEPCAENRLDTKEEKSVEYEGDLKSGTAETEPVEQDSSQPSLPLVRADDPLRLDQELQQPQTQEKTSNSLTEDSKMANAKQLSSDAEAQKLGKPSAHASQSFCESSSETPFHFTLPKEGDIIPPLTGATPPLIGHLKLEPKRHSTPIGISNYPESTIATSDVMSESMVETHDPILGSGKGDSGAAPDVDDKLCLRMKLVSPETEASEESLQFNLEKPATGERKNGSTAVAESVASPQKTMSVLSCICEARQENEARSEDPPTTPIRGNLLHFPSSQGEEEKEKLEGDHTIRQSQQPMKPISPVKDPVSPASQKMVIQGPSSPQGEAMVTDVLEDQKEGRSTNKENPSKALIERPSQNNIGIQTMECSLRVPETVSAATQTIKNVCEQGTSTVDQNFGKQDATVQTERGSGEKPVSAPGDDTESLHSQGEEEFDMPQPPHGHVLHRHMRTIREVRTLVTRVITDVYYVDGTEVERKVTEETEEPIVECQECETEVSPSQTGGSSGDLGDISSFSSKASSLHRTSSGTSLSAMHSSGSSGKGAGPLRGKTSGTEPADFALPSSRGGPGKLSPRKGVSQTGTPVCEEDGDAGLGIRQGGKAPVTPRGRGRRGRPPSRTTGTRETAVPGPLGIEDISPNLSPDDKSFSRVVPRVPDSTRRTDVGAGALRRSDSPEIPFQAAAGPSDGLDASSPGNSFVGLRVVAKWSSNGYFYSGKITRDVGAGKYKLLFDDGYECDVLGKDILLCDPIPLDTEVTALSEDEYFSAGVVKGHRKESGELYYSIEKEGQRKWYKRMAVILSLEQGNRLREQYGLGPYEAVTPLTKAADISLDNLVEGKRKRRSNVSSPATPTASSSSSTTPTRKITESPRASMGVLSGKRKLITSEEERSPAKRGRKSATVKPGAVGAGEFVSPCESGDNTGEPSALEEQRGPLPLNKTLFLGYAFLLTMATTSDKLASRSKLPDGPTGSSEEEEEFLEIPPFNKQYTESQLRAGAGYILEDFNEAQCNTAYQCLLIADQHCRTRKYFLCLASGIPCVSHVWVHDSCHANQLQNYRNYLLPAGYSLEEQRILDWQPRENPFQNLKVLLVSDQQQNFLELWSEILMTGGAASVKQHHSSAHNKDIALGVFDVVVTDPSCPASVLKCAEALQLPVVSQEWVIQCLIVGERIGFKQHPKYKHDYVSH
Molecule,increase of repair by HDR (53BP1),post-transplant TI [1],"engraftment of human CD45+ cells in the BM ([1]; week 16, NSGS mice, bone marrow) [%]","upregulation of interferon or other cytokines or cellular stress genes, transcriptional repression, toxicity or loss of viability (HSPCs [2])",levels of HDR-mediated TI with AAV donors or gene correction with ssODN donors (HSPCs [3]),NKG2D expression in in vitro differentiated NK cells ([4]; day 35 of culture) [%],"molecular TI rates in NK cells ([4]; day 35 of in vitro differentiation, ddPCR) [%]",viability of GE CD34+ HSPCs (XMEN CD34^+ HSPCs [5]),AAV-MAGT1 TI rates (targeted insertion) (XMEN CD34^+ HSPCs [6]) [%],"percentages of NKG2D-expressing CD8+ T cells ([1]; week 16 post-transplant, PB, spleen, thymus)",viability of GE CD34+ HSPCs (XMEN CD34^+ HSPCs [5]; listed as GSE-CS56 mRNA),proliferative capacity (CD34^+ HSPCs)
i53 protein: ubiquitin variant (SEQ ID NO:2) of Canny et al. that binds the tandem tudor domain of 53BP1,about 2 fold,,,,,,,,,,,
"i53 mRNA: pseudouridine-modified mRNA encoding i53, an inhibitor of 53BP1 (ubiquitin variant, SEQ ID NO:6)",,54.5±18.3%,11.03,not observed any significant upregulation,above 60%,26,34,"decreased after gene editing, independently of i53",50.0±18.2,,,
B1,,slightly improved,,not observed any significant upregulation,,,,significantly increased,62.3±18,slightly improved,rescue the cell viability,better preserved
